This is an account of results in paper PMC6060420, “Persulfide Dioxygenase From Acidithiobacillus caldus: Variable Roles of Cysteine Residues and Hydrogen Bond Networks of the Active Site” (Frontiers in Microbiology, 2018).

For one assay, the target named is T1, AcPDO (Acidithiobacillus caldus, UniProt A0A2P9DTT9).
T1 construct: gene pdo
In words: MALDI-TOF MS of tryptic peptides. Type of assay: binding. The following applies: covalent; cysteine-GSH adducts at C87, C224, C137 after […] min with […] GSSH, pH […].

Assay [1] has as its target persulfide dioxygenase from Acidithiobacillus caldus C-SH12 (AcPDO) (Acidithiobacillus caldus C-SH12). Briefly: native gel or EMSA; gel of urea-treated AcPDO (Supplementary Figure S6B), urea up to 8 M; 54-kDa dimer band.
The target is the same in assay [2]. Briefly: SDS-PAGE with Western blot; 10% acrylamide Tris-tricine SDS gel of purified AcPDO, detection with HRP-conjugated anti-Strep-tag antibody.
Assay [3] has the same target. In words: SEC; gel permeation chromatography, Superose 6 10/300 on an Äkta system, freshly prepared AcPDO (0.5 mg protein); standards cytochrome c, conalbumin, aldolase, catalase.
Assay [4] has the same target. In words: SEC; gel permeation chromatography, Superose 6 HR 10/30, previously frozen AcPDO, 2 M guanidinium chloride in 150 mM Tris/HCl pH 8, after 1 h at 25°C, 0.5 ml/min; tetramer to dimers.

T1 sequence (A0A2P9DTT9 1-235 limits assumed): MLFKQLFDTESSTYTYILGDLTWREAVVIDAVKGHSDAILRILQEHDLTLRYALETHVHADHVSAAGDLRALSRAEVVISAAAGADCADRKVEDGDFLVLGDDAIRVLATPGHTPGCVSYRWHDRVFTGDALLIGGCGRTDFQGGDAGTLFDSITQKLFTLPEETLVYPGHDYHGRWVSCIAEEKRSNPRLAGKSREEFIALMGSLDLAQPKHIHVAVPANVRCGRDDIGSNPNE

Take `N[C@@H](CCC(=O)N[C@@H](CSS)C(=O)NCC(=O)O)C(=O)O` [GSSH]: the “MALDI-TOF MS of tryptic peptides” value at AcPDO was “cysteine-GSH adducts were identified after the enzyme was incubated with GSSH”.
“persulfide dioxygenase from Acidithiobacillus caldus C-SH12 (AcPDO) (enzyme)”: the stoichiometry N in assay [1] amounted to 2; in assay [2], 2; in assay [3] it was 3.7 subunits; in assay [4], 2.
